# Reference: PMC4155688, “Mapping the Putative G Protein-coupled Receptor (GPCR) Docking Site on GPCR Kinase 2” (The Journal of Biological Chemistry, 2014)
# B1: RlucII-GRK2 (wild type) [human] / α2AAR-GFP^2 [not stated] (parent)
# chain 1: MADLEAVLADVSYLMAMEKSKATPAARASKKILLPEPSIRSVMQKYLEDRGEVTFEKIFSQKLGYLLFRDFCLNHLEEARPLVEFYEEIKKYEKLETEEERVARSREIFDSYIMKELLACSHPFSKSATEHVQGHLGKKQVPPDLFQPYIEEICQNLRGDVFQKFIESDKFTRFCQWKNVELNIHLTMNDFSVHRIIGRGGFGEVYGCRKADTGKMYAMKCLDKKRIKMKQGETLALNERIMLSLVSTGDCPFIVCMSYAFHTPDKLSFILDLMNGGDLHYHLSQHGVFSEADMRFYAAEIILGLEHMHNRFVVYRDLKPANILLDEHGHVRISDLGLACDFSKKKPHASVGTHGYMAPEVLQKGVAYDSSADWFSLGCMLFKLLRGHSPFRQHKTKDKHEIDRMTLTMAVELPDSFSPELRSLLEGLLQRDVNRRLGCLGRGAQEVKESPFFRSLDWQMVFLQKYPPPLIPPRGEVNAADAFDIGSFDEEDTKGIKLLDSDQELYRNFPLTISERWQQEVAETVFDTINAETDRLEARKKAKNKQLGHEEDYALGKDCIMHGYMSKMGNPFLTQWQRRYFYLFPNRLEWRGEGEAPQSLLTMEEIQSVEETQIKERKCLLLKIRGGKQFILQCDSDPELVQWKKELRDAYREAQQLVQRVPKMKNKPRSPVVELSKVPLVQRGSANGL
# chain 2: MFRQEQPLAEGSFAPMGSLQPDAGNASWNGTEAPGGGARATPYSLQVTLTLVCLAGLLMLLTVFGNVLVIIAVFTSRALKAPQNLFLVSLASADILVATLVIPFSLANEVMGYWYFGKAWCEIYLALDVLFCTSSIVHLCAISLDRYWSITQAIEYNLKRTPRRIKAIIITVWVISAVISFPPLISIEKKGGGGGPQPAEPRCEINDQKWYVISSCIGSFFAPCLIMILVYVRIYQIAKRRTRVPPSRRGPDAVAAPPGGTERRPNGLGPERSAGPGGAEAEPLPTQLNGAPGEPAPAGPRDTDALDLEESSSSDHAERPPGPRRPERGPRGKGKARASQVKPGDSLPRRGPGATGIGTPAAGPGEERVGAAKASRWRGRQNREKRFTFVLAVVIGVFVVCWFPFFFTYTLTAVGCSVPRTLFKFFFWFGYCNSSLNPVIYTIFNHDFRRAFKKILCRGDRKRIV
# Variants of: B1
# Test: BRET
# Conditions: with α2AAR-GFP^2; HEK293T cells; 100 μm NOR for 6 min; read off a plot
row,Variant,response
1,chain 1 P473E,0.033
2,chain 1 K220R,0.032
3,chain 1 D481A,0.049
4,chain 1 A482I,0.059
5,chain 1 I485A,0.018
6,chain 1 D3A,0.026

# Next, values leading:
row,response,Variant
1,0.05,chain 1 E18A
2,0.026,chain 1 D10A
3,0.041,chain 1 D10R
4,0.027,chain 1 M15A
5,0.016,chain 1 G475I

# Variants of: B1
# Test: BRET dose-response
# Conditions: with α2AAR-GFP^2; HEK293T cells; point at highest NOR concentration, log [NOR] = -3; read off a plot
row,response,Variant
1,0.031,chain 1 K220R
